This note sets out measurements from publication PMC4672733 (Immunity, 2015).

The test addresses T1, GST-CARD9 (human, UniProt Q9H257 1-536).
T1 sequence (looked up): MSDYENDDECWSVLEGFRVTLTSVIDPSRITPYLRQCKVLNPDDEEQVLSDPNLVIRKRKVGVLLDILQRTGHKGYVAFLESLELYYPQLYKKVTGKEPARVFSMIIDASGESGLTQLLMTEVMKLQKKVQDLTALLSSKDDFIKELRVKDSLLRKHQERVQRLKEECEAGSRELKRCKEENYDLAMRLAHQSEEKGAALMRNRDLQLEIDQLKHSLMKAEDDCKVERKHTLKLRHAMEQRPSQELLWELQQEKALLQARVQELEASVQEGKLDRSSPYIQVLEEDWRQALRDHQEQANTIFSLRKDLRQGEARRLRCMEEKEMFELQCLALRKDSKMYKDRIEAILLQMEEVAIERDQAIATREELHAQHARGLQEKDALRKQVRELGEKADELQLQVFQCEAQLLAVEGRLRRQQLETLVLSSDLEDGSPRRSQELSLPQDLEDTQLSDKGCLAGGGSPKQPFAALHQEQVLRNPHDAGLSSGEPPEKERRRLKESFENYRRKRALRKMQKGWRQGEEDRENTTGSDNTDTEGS
Kind of test: ELISA.

B1: purified FLAG-tagged CARD9 WT (natural protein, human, UniProt Q9H257 1-536, looked up)
chain: MSDYENDDECWSVLEGFRVTLTSVIDPSRITPYLRQCKVLNPDDEEQVLSDPNLVIRKRKVGVLLDILQRTGHKGYVAFLESLELYYPQLYKKVTGKEPARVFSMIIDASGESGLTQLLMTEVMKLQKKVQDLTALLSSKDDFIKELRVKDSLLRKHQERVQRLKEECEAGSRELKRCKEENYDLAMRLAHQSEEKGAALMRNRDLQLEIDQLKHSLMKAEDDCKVERKHTLKLRHAMEQRPSQELLWELQQEKALLQARVQELEASVQEGKLDRSSPYIQVLEEDWRQALRDHQEQANTIFSLRKDLRQGEARRLRCMEEKEMFELQCLALRKDSKMYKDRIEAILLQMEEVAIERDQAIATREELHAQHARGLQEKDALRKQVRELGEKADELQLQVFQCEAQLLAVEGRLRRQQLETLVLSSDLEDGSPRRSQELSLPQDLEDTQLSDKGCLAGGGSPKQPFAALHQEQVLRNPHDAGLSSGEPPEKERRRLKESFENYRRKRALRKMQKGWRQGEEDRENTTGSDNTDTEGS
Take B1: the binding result is “binds”.
